Data as given in patent US9127075B2, “Analgesic active peptide VGG, preparation and use thereof” (priority 2010, dated 2015).
Where two headings read alike, the source gives them in different places.

Legend:
[1] = tested on: mouse twisting model induced by acetic acid; format: in vivo
Description: 1. In Vivo Analgesic Activity in Mouse Twisting Model Induced by Acetic Acid.
In mouse twisting model: The glacial acetic acid as the chemical irritant is injected into the mouse stomach, which causes a deep and large area and lasting pain stimulus for animal which has a “twist body” reaction, such as abdominal cove, torso and legs spread out, hip high up.
Equal numbers of male and female mice, whose weight were about […], were divided into groups by random. Each group consisted of eight mice. 0.2 ml/20 g of 0.6% (v/v) of acetic acid, which caused visceral pain, was intraperitoneally injected after the test sample was injected into the stomach of mouse for 20 minutes. The writhing times of the mouse were recorded for 10 min after the acetic acid was injected for 5 min. […] The inhibition of writhing response inhibition for each test group was calculated by the following formula: […]

[2] = tested on: mouse hot plate analgesic method; assay: In vivo assay of analgesic activity, hot plate method of mice; conditions: 0.1 mg/kg i.v. via tail, hot plate 55±0.5° C.; for B, average response time after medicine taken: before 21 ± 4.2 s
Description: 2. In Vivo Assay of Analgesic Activity—Hot Plate Method of Mice
This example is used to verify the in vivo biological activity for the analgesic activity of analgesic active peptide VGG with […].
The mouse hot plate analgesic method: the female mice with weight from 18 g to 22 g were put a hot plate at temperature of 55±0.5° C. which was maintained by a water bath. The licking times were recorded plate as the pain threshold of mouse after it was put onto the hot plate. The pain threshold between 10-30 seconds was considered to be qualified for experiments. The qualified mice were divided into groups by random. The normal pain reaction time of mouse was determined for two times. The mean of the pain threshold (B) was calculated before medicine was taken. The analgesic active peptide VGG (dosage of 0.1 mg/kg (test sample/mouse weight) was intravenously injected via tail. The normal saline was used as control group. The pain reaction time was recorded as one at 15, 30, 45, 60 […] after the test sample was taken. The mouse was immediately taken out if it had no pain response on the hot plate in 60 seconds. The 60 seconds as a calculation unit, the pain threshold increasing percentage was calculated by the following formula: A=(B−C)/C×100% • A—Pain threshold increasing percentage • B—Average response time after medicine taken • C—Average response time before medicine taken

B1: analgesic active peptide VGG (protein, listed as Mesobuthus martensi)
chain: VKDGYIADDRNCPYFCGRNAYCDGECKKNRAESGYCQWASKYGNACWCYKLPDDARIMKPGRCNGG
[1]; purest analgesic active peptide VGG, dosage 0.1 mg/kg
  inhibition of the animal writhing: ≥ 60%
[1]; various purity, isolated from scorpion venom or scorpion tails or scorpion body, dosage 0.1 mg/kg-1.0 mg/kg
  inhibition of the animal writhing: ≥ 50%
[2]; 10 min
  A, pain threshold increasing percentage: 128%
  B, average response time after medicine taken: 48 ± 3.2 s
[2]; 15 min
  A, pain threshold increasing percentage: 138%
  B, average response time after medicine taken: 50 ± 5.1 s
[2]; 30 min
  A, pain threshold increasing percentage: 114%
  B, average response time after medicine taken: 45 ± 3.7 s
[2]; 45 min
  A, pain threshold increasing percentage: 100%
  B, average response time after medicine taken: 42 ± 6.9 s
[2]; 60 min
  A, pain threshold increasing percentage: 90%
  B, average response time after medicine taken: 40 ± 3.5 s
